Where two headings read alike, the source gives them in different places.
T1: Human IL22 (human, UniProt Q9GZX6 34-179)
T1 sequence: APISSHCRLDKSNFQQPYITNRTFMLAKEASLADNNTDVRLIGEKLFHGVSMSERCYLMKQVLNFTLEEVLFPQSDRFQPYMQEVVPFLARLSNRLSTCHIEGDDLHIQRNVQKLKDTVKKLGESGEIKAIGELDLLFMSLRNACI


Experiments:
Human IL22 [1] = molecular target: T1, Human IL22; test: cell-based or functional assay
Human IL22 [2] = molecular target: T1, Human IL22; test: cell-based or functional assay; remark: listed apart in the source
Human IL22 [3] = molecular target: T1, Human IL22; test: SPR Biacore 8K; single experiment
Human IL22 [4] = molecular target: T1, Human IL22; test: cell-based or functional assay; remark: listed apart in the source
Human IL22 [5] = molecular target: T1, Human IL22; test: SPR Biacore T200; antibody captured on anti-human Fab (280 RU), IL22 injected at 20 nM

IC50 (M), Geomean; COLO205 IL-10 release assay (Human IL22 [1]) [M]	IC50 (M), Geomean; COLO205 IL-10 release assay (Human IL22 [2]) [M]	Kd (Human IL22 [3]) [nM]	IC50 (read off the curve), inhibition of IL-22-induced S100A7 release from human primary keratinocytes (NHEK) (Human IL22 [4]) [nM]	IL22 Binding at 20 nM (RU) (Human IL22 [5])	Binder
5.68e-11					rabbit 11041 Fab (Fab, V domains shown) VH: QSVEESGGRLVTPGTPLTLTCTVSGFSLSSYAMIWVRQAPGEGLEWIGIIDIDGSTYYASWAKGRFTISRTSTTVDLKITSPTTGDTATYFCARDRFVGVDIFDPWGPGTLVTVSS VL: AVVLTQTASPVSAPVGGTVTIKCQASEDIYTNLAWYQQKPGQPPKLLIYWASTLASGVPSRFKGSGSGTEFTLTISDLECADAATYYCQACVYGNSADSRYTFGGGTEVVVK
	4.27e-11	< 0.1	~10	40	11041gL13gH14 Fab (Fab, V domains shown, Humanized Fab; also called VR11041) VH: EVQLVESGGGLVQPGGSLRLSCAVSGFSLSSYAMIWVRQAPGKGLEWIGIIDIEGSTYYASWAKGRFTISRDNSKNTVYLQMNSLRAEDTAVYYCARDRFVGVDIFDPWGQGTLVTVSS VL: AVQLTQSPSSLSASVGDRVTITCQASEDIYTNLAWYQQKPGKAPKLLIYWASTLASGVPSRFSGSGSGTDFTLTISSLQPEDFATYYCQASVYGNAADSRYTFGGGTKVEIKR
